We go through 30 molecules from patent publication US20030148958A1 (PROCTER AND GAMBLE, published 2003).

Ends that are not written are not given here.

The target of assay [1] is T1, corticotropin releasing factor 2 receptor.
T1 sequence (Q13324 whole entry, species assumed, looked up): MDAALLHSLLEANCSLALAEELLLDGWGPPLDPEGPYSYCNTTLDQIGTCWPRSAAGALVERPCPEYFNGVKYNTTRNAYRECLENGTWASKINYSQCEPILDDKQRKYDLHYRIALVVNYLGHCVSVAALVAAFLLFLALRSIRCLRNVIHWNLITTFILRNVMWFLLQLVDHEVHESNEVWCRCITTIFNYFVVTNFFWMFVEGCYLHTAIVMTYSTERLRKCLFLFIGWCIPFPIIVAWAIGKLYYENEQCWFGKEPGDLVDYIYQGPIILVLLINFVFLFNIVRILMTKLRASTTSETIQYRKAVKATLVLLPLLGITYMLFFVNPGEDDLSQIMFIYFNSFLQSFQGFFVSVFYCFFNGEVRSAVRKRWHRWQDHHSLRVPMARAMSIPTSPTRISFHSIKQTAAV
Kind of assay: cell-based or functional assay.

Assay [2] addresses corticotropin releasing factor 1 receptor. Kind of assay: cell-based or functional assay.
Wherever CRF1R Emax is given: reference of the scale not given here.
Wherever CRF2R Emax is given: reference of the scale not given here.

B1: SEQ ID NO 55 (peptide)
peptide: ZGPPISIDLPWYLLRKMIEIEKQEKEKQQAANNRLLLDTI
modifications: C-terminal amide
On to B1, for which, in assay [1], the “CRF2R EC50” value was 7.95 nM and the “CRF2R Emax” value is 95%. Moreover, in assay [2], the “CRF1R EC50” value worked out at 11.6 nM and the “CRF1R Emax” value was found to be 92%.

B2: SEQ ID NO 70 (peptide)
peptide: ZGPPISIDLPTYLLRKMIEIEKQEKEKQQAANNRLLLDTI
modifications: C-terminal amide
As for B2, in assay [1], the “CRF2R EC50” value is 18.2 nM and the “CRF2R Emax” value turned out to be 82%. Moreover, in assay [2], the “CRF1R EC50” value was more than 100 nM and the “CRF1R Emax” value was found to be 8%.

B3: SEQ ID NO 73 (peptide)
peptide: ZGPPISIDLPTGLLRKMIEIEKQEKEKQQAANNRLLLDTI
modifications: C-terminal amide
As to B3, in assay [1], the “CRF2R EC50” value was more than 100 nM and the “CRF2R Emax” value worked out at 11%. Further, in assay [2], the “CRF1R EC50” value was more than 100 nM and the “CRF1R Emax” value stood at 11%.

B4: SEQ ID NO 75 (peptide)
peptide: ZGPPISIDLPIGLLRKMIEIEKQEKEKQQAANNRLLLDTI
modifications: C-terminal amide
For the molecule B4, in assay [1], the “CRF2R EC50” value is more than 100 nM and the “CRF2R Emax” value was found to be 52%. Further, in assay [2], the “CRF1R EC50” value was more than 100 nM and the “CRF1R Emax” value was 5%.

B5: SEQ ID NO 83 (peptide)
peptide: ZGPPISIDLPLHLLRKMIEIEKQEKEKQQAANNRLLLDTI
modifications: C-terminal amide
With B5, in assay [1], the “CRF2R EC50” value is 1.91 nM and the “CRF2R Emax” value came to 81%. Further, in assay [2], the “CRF1R EC50” value came to 52.2 nM and the “CRF1R Emax” value is 96%.

B6: SEQ ID NO 65 (peptide)
peptide: ZGPPISIDLPRYLLRKMIEIEKQEKEKQQAANNRLLLDTI
modifications: C-terminal amide
On to B6, for which, in assay [1], the “CRF2R EC50” value came to 67.9 nM and the “CRF2R Emax” value amounted to 64%. For the same molecule, in assay [2], the “CRF1R EC50” value is more than 100 nM and the “CRF1R Emax” value was 16%.

B7: SEQ ID NO 71 (peptide)
peptide: ZGPPISIDLPTELLRKMIEIEKQEKEKQQAANNRLLLDTI
modifications: C-terminal amide
Consider B7, for which, in assay [1], the “CRF2R EC50” value was 94.8 nM and the “CRF2R Emax” value came out at 56%. Further, in assay [2], the “CRF1R EC50” value is more than 100 nM and the “CRF1R Emax” value stood at 6%.

B8: SEQ ID NO 84 (peptide)
peptide: ZGPPISIDLPFQLLRKMIEIEKQEKEKQQAANNRLLLDTI
modifications: C-terminal amide
Regarding B8, in assay [1], the “CRF2R EC50” value was found to be 1.77 nM and the “CRF2R Emax” value was 100%. In assay [2], the “CRF1R EC50” value came to 82.2 nM and the “CRF1R Emax” value is 99%.

B9: SEQ ID NO 64 (peptide)
peptide: ZGPPISIDLPNYLLRKMIEIEKQEKEKQQAANNRLLLDTI
modifications: C-terminal amide
Take B9: in assay [1], the “CRF2R EC50” value came out at 63.3 nM and the “CRF2R Emax” value was found to be 94%. In addition, in assay [2], the “CRF1R EC50” value was 68.9 nM and the “CRF1R Emax” value was found to be 57%.

B10: SEQ ID NO 56 (peptide)
peptide: ZGPPISIDLPSYLLRKMIEIEKQEKEKQQAANNRLLLDTI
modifications: C-terminal amide
B10: in assay [1], the “CRF2R EC50” value came to 50.4 nM and the “CRF2R Emax” value worked out at 87%. Moreover, in assay [2], the “CRF1R EC50” value is more than 100 nM and the “CRF1R Emax” value amounted to 14%.

B11: SEQ ID NO 72 (peptide)
peptide: ZGPPISIDLPTQLLRKMIEIEKQEKEKQQAANNRLLLDTI
modifications: C-terminal amide
Regarding B11, in assay [1], the “CRF2R EC50” value was more than 100 nM and the “CRF2R Emax” value is 55%. In assay [2], the “CRF1R EC50” value was more than 100 nM and the “CRF1R Emax” value is 4%.

B12: SEQ ID NO 76 (peptide)
peptide: ZGPPISIDLPIELLRKMIEIEKQEKEKQQAANNRLLLDTI
modifications: C-terminal amide
For B12, in assay [1], the “CRF2R EC50” value worked out at 91.5 nM and the “CRF2R Emax” value came out at 76%. Moreover, in assay [2], the “CRF1R EC50” value was more than 100 nM and the “CRF1R Emax” value stood at 7%.

B13: SEQ ID NO 79 (peptide)
peptide: ZGPPISIDLPIYLLRKMIEIEKQEKEKQQAANNRLLLDTI
modifications: C-terminal amide
Regarding B13, in assay [1], the “CRF2R EC50” value came to 22.3 nM and the “CRF2R Emax” value was found to be 100%. In addition, in assay [2], the “CRF1R EC50” value was more than 100 nM and the “CRF1R Emax” value was 8%.

B14: SEQ ID NO 61 (peptide)
peptide: ZGPPISIDLPTALLRKMIEIEKQEKEKQQAANNRLLLDTI
modifications: C-terminal amide
As for B14, in assay [1], the “CRF2R EC50” value was more than 100 nM and the “CRF2R Emax” value is 89%. In assay [2], the “CRF1R EC50” value was more than 100 nM and the “CRF1R Emax” value was 12%.

B15: SEQ ID NO 74 (peptide)
peptide: ZGPPISIDLPTHLLRKMIEIEKQEKEKQQAANNRLLLDTI
modifications: C-terminal amide
Regarding B15, in assay [1], the “CRF2R EC50” value was found to be 55 nM and the “CRF2R Emax” value was found to be 100%. Moreover, in assay [2], the “CRF1R EC50” value was more than 100 nM and the “CRF1R Emax” value came to 7%.

B16: SEQ ID NO 58 (peptide)
peptide: ZGPPISIDLPKYLLRKMIEIEKQEKEKQQAANNRLLLDTI
modifications: C-terminal amide
For the molecule B16, in assay [1], the “CRF2R EC50” value was 71.6 nM and the “CRF2R Emax” value came to 100%. Further, in assay [2], the “CRF1R EC50” value was more than 100 nM and the “CRF1R Emax” value came to 16%.

B17: SEQ ID NO 78 (peptide)
peptide: ZGPPISIDLPIQLLRKMIEIEKQEKEKQQAANNRLLLDTI
modifications: C-terminal amide
With B17, in assay [1], the “CRF2R EC50” value stood at 24.6 nM and the “CRF2R Emax” value came to 78%. In assay [2], the “CRF1R EC50” value was more than 100 nM and the “CRF1R Emax” value worked out at 6%.

B18: SEQ ID NO 60 (peptide)
peptide: ZGPPISIDLPTRLLRKMIEIEKQEKEKQQAANNRLLLDTI
modifications: C-terminal amide
Take B18: in assay [1], the “CRF2R EC50” value is more than 100 nM and the “CRF2R Emax” value is 44%. Further, in assay [2], the “CRF1R EC50” value was more than 100 nM and the “CRF1R Emax” value is 8%.

B19: SEQ ID NO 77 (peptide)
peptide: ZGPPISIDLPIHLLRKMIEIEKQEKEKQQAANNRLLLDTI
modifications: C-terminal amide
Regarding B19, in assay [1], the “CRF2R EC50” value is 43.4 nM and the “CRF2R Emax” value came out at 100%. Besides, in assay [2], the “CRF1R EC50” value is more than 100 nM and the “CRF1R Emax” value amounted to 5%.

B20: SEQ ID NO 69 (peptide)
peptide: ZGPPISIDLPFHLLRKMIEIEKQEKEKQQAANNRLLLDTI
modifications: C-terminal amide
Consider B20, for which, in assay [1], the “CRF2R EC50” value came to 5.85 nM and the “CRF2R Emax” value was determined as 81%. For the same molecule, in assay [2], the “CRF1R EC50” value amounted to 34.5 nM and the “CRF1R Emax” value stood at 88%.

B21: SEQ ID NO 82 (peptide)
peptide: ZGPPISIDLPLELLRKMIEIEKQEKEKQQAANNRLLLDTI
modifications: C-terminal amide
For the molecule B21, in assay [1], the “CRF2R EC50” value was found to be 10.9 nM and the “CRF2R Emax” value is 90%. Also, in assay [2], the “CRF1R EC50” value was 96.2 nM and the “CRF1R Emax” value was determined as 85%.

B22: SEQ ID NO 67 (peptide)
peptide: ZGPPISIDLPFELLRKMIEIEKQEKEKQQAANNRLLLDTI
modifications: C-terminal amide
As to B22, in assay [1], the “CRF2R EC50” value is 10 nM and the “CRF2R Emax” value is 50%. In addition, in assay [2], the “CRF1R EC50” value was determined as 44.2 nM and the “CRF1R Emax” value stood at 96%.

B23: SEQ ID NO 59 (peptide)
peptide: ZGPPISIDLPTNLLRKMIEIEKQEKEKQQAANNRLLLDTI
modifications: C-terminal amide
On to B23, for which, in assay [1], the “CRF2R EC50” value was more than 100 nM and the “CRF2R Emax” value was 27%. Besides, in assay [2], the “CRF1R EC50” value is more than 100 nM and the “CRF1R Emax” value was determined as 10%.

B24: SEQ ID NO 63 (peptide)
peptide: ZGPPISIDLPGYLLRKMIEIEKQEKEKQQAANNRLLLDTI
modifications: C-terminal amide
B24: in assay [1], the “CRF2R EC50” value came out at 67.3 nM and the “CRF2R Emax” value was determined as 100%. In assay [2], the “CRF1R EC50” value is 73.2 nM and the “CRF1R Emax” value stood at 34%.

B25: SEQ ID NO 68 (peptide)
peptide: ZGPPISIDLPFGLLRKMIEIEKQEKEKQQAANNRLLLDTI
modifications: C-terminal amide
B25: in assay [1], the “CRF2R EC50” value is 38.5 nM and the “CRF2R Emax” value was 74%. Further, in assay [2], the “CRF1R EC50” value is more than 100 nM and the “CRF1R Emax” value stood at 33%.

B26: SEQ ID NO 80 (peptide)
peptide: ZGPPISIDLPLQLLRKMIEIEKQEKEKQQAANNRLLLDTI
modifications: C-terminal amide
As for B26, in assay [1], the “CRF2R EC50” value turned out to be 6.53 nM and the “CRF2R Emax” value is 88%. Moreover, in assay [2], the “CRF1R EC50” value is more than 100 nM and the “CRF1R Emax” value stood at 55%.

B27: SEQ ID NO 57 (peptide)
peptide: ZGPPISIDLPPYLLRKMIEIEKQEKEKQQAANNRLLLDTI
modifications: C-terminal amide
For the molecule B27, in assay [1], the “CRF2R EC50” value is more than 100 nM and the “CRF2R Emax” value came to 46%. In assay [2], the “CRF1R EC50” value was more than 100 nM and the “CRF1R Emax” value turned out to be 12%.

B28: SEQ ID NO 85 (peptide)
peptide: ZGPPISIDLPFYLLRKMIEIEKQEKEKQQAANNRLLLDTI
modifications: C-terminal amide
Take B28: in assay [1], the “CRF2R EC50” value was 2.34 nM and the “CRF2R Emax” value stood at 100%. In assay [2], the “CRF1R EC50” value came out at 11 nM and the “CRF1R Emax” value is 84%.

B29: SEQ ID NO 1 (peptide)
peptide: IVLSLDVPIGLLQELLEMARAEQLAQQAHSNRKLMEII-NH2
Regarding B29, in assay [1], the “CRF2R EC50” value was 31.5 nM and the “CRF2R Emax” value was determined as 100%. Further, in assay [2], the “CRF1R EC50” value was found to be 783 nM and the “CRF1R Emax” value came out at 64%.

B30: SEQ ID NO 81 (peptide)
peptide: ZGPPISIDLPLYLLRKMIEIEKQEKEKQQAANNRLLLDT
modifications: C-terminal amide
In the case of B30, in assay [1], the “CRF2R EC50” value turned out to be 4.3 nM and the “CRF2R Emax” value stood at 73%. Further, in assay [2], the “CRF1R EC50” value was found to be 60.9 nM and the “CRF1R Emax” value came to 81%.
